According to paper PMC11574045, “A cofactor-induced repressive type of transcription factor condensation can be induced by synthetic peptides to suppress tumorigenesis” (The EMBO Journal, 2024):

Test system: HEK293FT cells transfected with TF library
Assay: Screening of TF condensates based on fluorescent puncta
Type: cell-based
Details: Figure 1B numerical data; TF library screen, one value per transcriptional factor
Summary of the method: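 HEK293FT cells were reverse-transfected with Flag- or GAL4-tagged TF plasmids (1.6 μg/ml, PEI). After 60 h, cells were cultured 12 h with or without glucose, then fixed and immunostained with anti-Flag or anti-GAL4 and Alexa 488 secondaries. Fluorescent puncta were imaged over fifty random fields per well by high-content imaging.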

B1: PFDN5 (protein, UniProt Q99471 2-154, looked up)
Prefoldin subunit 5: AQSINITELNLPQLEMLKNQLDQEVEFLSTSIAQLKVVQTKYVEAKDCLNVLNKSNEGKELLVPLTSSMYVPGKLHDVEHVLIDVGTGYYVEKTAEDAKDFFKRKIDFLTKQMEKIQPALQEKHAMKQAVMEMMSQKIQQLTALGAAQATAKA
For B1, the “Z score of condensed fraction” value was 0.7455.

B2: OLIG3 (protein, UniProt Q7RTU3 1-272, looked up)
Oligodendrocyte transcription …: MNSDSSSVSSRASSPDMDEMYLRDHHHRHHHHQESRLNSVSSTQGDMMQKMPGESLSRAGAKAAGESSKYKIKKQLSEQDLQQLRLKINGRERKRMHDLNLAMDGLREVMPYAHGPSVRKLSKIATLLLARNYILMLTSSLEEMKRLVGEIYGGHHSAFHCGTVGHSAGHPAHAANSVHPVHPILGGALSSGNASSPLSAASLPAIGTIRPPHSLLKAPSTPPALQLGSGFQHWAGLPCPCTICQMPPPPHLSALSTANMARLSAESKDLLK
B2 was tested, and the “Z score of condensed fraction” value was -0.3841.

B3: PBX3 (protein, UniProt P40426 1-434, looked up)
Pre-B-cell leukemia …: MDDQSRMLQTLAGVNLAGHSVQGGMALPPPPHGHEGADGDGRKQDIGDILHQIMTITDQSLDEAQAKKHALNCHRMKPALFSVLCEIKEKTGLSIRGAQEEDPPDPQLMRLDNMLLAEGVSGPEKGGGSAAAAAAAAASGGSSDNSIEHSDYRAKLTQIRQIYHTELEKYEQACNEFTTHVMNLLREQSRTRPISPKEIERMVGIIHRKFSSIQMQLKQSTCEAVMILRSRFLDARRKRRNFSKQATEILNEYFYSHLSNPYPSEEAKEELAKKCSITVSQVSNWFGNKRIRYKKNIGKFQEEANLYAAKTAVTAAHAVAAAVQNNQTNSPTTPNSGSSGSFNLPNSGDMFMNMQSLNGDSYQGSQVGANVQSQVDTLRHVINQTGGYSDGLGGNSLYSPHNLNANGGWQDATTPSSVTSPTEGPGSVHSDTSN
In the case of B3, the “Z score of condensed fraction” value is reported as 0.7478.

B4: OVOL3 (protein, UniProt O00110 1-190, looked up)
Putative transcription factor …: MPRAFLVRSRRPQPPNWGHLPDQLRGDAYIPDCSSLGGPPAQQSSSVRDPWTAQPTQGNLTSAPRGPGTLGCPLCPKAFPLQRMLTRHLKCHSPVRRHLCRCCGKGFHDAFDLKRHMRTHTGIRPFRCSACGKAFTQRCSLEAHLAKVHGQPASYAYRERREKLHVCEDCGFTSSRPDTYAQHRALHRAA
With B4 the “Z score of condensed fraction” value was -0.7593.

B5: ATOH8 (protein, UniProt Q96SQ7 1-321, looked up)
Transcription factor ATOH8: MKHIPVLEDGPWKTVCVKELNGLKKLKRKGKEPARRANGYKTFRLDLEAPEPRAVATNGLRDRTHRLQPVPVPVPVPVPVAPAVPPRGGTDTAGERGGSRAPEVSDARKRCFALGAVGPGLPTPPPPPPPAPQSQAPGGPEAQPFREPGLRPRILLCAPPARPAPSAPPAPPAPPESTVRPAPPTRPGESSYSSISHVIYNNHQDSSASPRKRPGEATAASSEIKALQQTRRLLANARERTRVHTISAAFEALRKQVPCYSYGQKLSKLAILRIACNYILSLARLADLDYSADHSNLSFSECVQRCTRTLQAEGRAKKRKE
For B5, the “Z score of condensed fraction” value was -1.0319.

B6: ATONAL1 (protein, UniProt Q92858 1-354, looked up)
Transcription factor ATOH1: MSRLLHAEEWAEVKELGDHHRQPQPHHLPQPPPPPQPPATLQAREHPVYPPELSLLDSTDPRAWLAPTLQGICTARAAQYLLHSPELGASEAAAPRDEVDGRGELVRRSSGGASSSKSPGPVKVREQLCKLKGGVVVDELGCSRQRAPSSKQVNGVQKQRRLAANARERRRMHGLNHAFDQLRNVIPSFNNDKKLSKYETLQMAQIYINALSELLQTPSGGEQPPPPPASCKSDHHHLRTAASYEGGAGNATAAGAQQASGGSQRPTPPGSCRTRFSAPASAGGYSVQLDALHFSTFEDSALTAMMAQKNLSPSLPGSILQPVQEENSKTSPRSHRSDGEFSPHSHYSDSDEAS
In the case of B6, the “Z score of condensed fraction” value is reported as -0.5192.

B7: PA2G4 (protein, UniProt Q9UQ80 2-394, looked up)
Proliferation-associated …: SGEDEQQEQTIAEDLVVTKYKMGGDIANRVLRSLVEASSSGVSVLSLCEKGDAMIMEETGKIFKKEKEMKKGIAFPTSISVNNCVCHFSPLKSDQDYILKEGDLVKIDLGVHVDGFIANVAHTFVVDVAQGTQVTGRKADVIKAAHLCAEAALRLVKPGNQNTQVTEAWNKVAHSFNCTPIEGMLSHQLKQHVIDGEKTIIQNPTDQQKKDHEKAEFEVHEVYAVDVLVSSGEGKAKDAGQRTTIYKRDPSKQYGLKMKTSRAFFSEVERRFDAMPFTLRAFEDEKKARMGVVECAKHELLQPFNVLYEKEGEFVAQFKFTVLLMPNGPMRITSGPFEPDLYKSEMEVQDAELKALLQSSASRKTQKKKKKKASKTAENATSGETLEENEAGD
B7 was tested, and the “Z score of condensed fraction” value was 0.5274.

B8: NSD2 (protein, UniProt O96028 1-1365, looked up)
Histone-lysine …: MEFSIKQSPLSVQSVVKCIKMKQAPEILGSANGKTPSCEVNRECSVFLSKAQLSSSLQEGVMQKFNGHDALPFIPADKLKDLTSRVFNGEPGAHDAKLRFESQEMKGIGTPPNTTPIKNGSPEIKLKITKTYMNGKPLFESSICGDSAADVSQSEENGQKPENKARRNRKRSIKYDSLLEQGLVEAALVSKISSPSDKKIPAKKESCPNTGRDKDHLLKYNVGDLVWSKVSGYPWWPCMVSADPLLHSYTKLKGQKKSARQYHVQFFGDAPERAWIFEKSLVAFEGEGQFEKLCQESAKQAPTKAEKIKLLKPISGKLRAQWEMGIVQAEEAASMSVEERKAKFTFLYVGDQLHLNPQVAKEAGIAAESLGEMAESSGVSEEAAENPKSVREECIPMKRRRRAKLCSSAETLESHPDIGKSTPQKTAEADPRRGVGSPPGRKKTTVSMPRSRKGDAASQFLVFCQKHRDEVVAEHPDASGEEIEELLRSQWSLLSEKQRARYNTKFALVAPVQAEEDSGNVNGKKRNHTKRIQDPTEDAEAEDTPRKRLRTDKHSLRKRDTITDKTARTSSYKAMEAASSLKSQAATKNLSDACKPLKKRNRASTAASSALGFSKSSSPSASLTENEVSDSPGDEPSESPYESADETQTEVSVSSKKSERGVTAKKEYVCQLCEKPGSLLLCEGPCCGAFHLACLGLSRRPEGRFTCSECASGIHSCFVCKESKTDVKRCVVTQCGKFYHEACVKKYPLTVFESRGFRCPLHSCVSCHASNPSNPRPSKGKMMRCVRCPVAYHSGDACLAAGCSVIASNSIICTAHFTARKGKRHHAHVNVSWCFVCSKGGSLLCCESCPAAFHPDCLNIEMPDGSWFCNDCRAGKKLHFQDIIWVKLGNYRWWPAEVCHPKNVPPNIQKMKHEIGEFPVFFFGSKDYYWTHQARVFPYMEGDRGSRYQGVRGIGRVFKNALQEAEARFREIKLQREARETQESERKPPPYKHIKVNKPYGKVQIYTADISEIPKCNCKPTDENPCGFDSECLNRMLMFECHPQVCPAGEFCQNQCFTKRQYPETKIIKTDGKGWGLVAKRDIRKGEFVNEYVGELIDEEECMARIKHAHENDITHFYMLTIDKDRIIDAGPKGNYSRFMNHSCQPNCETLKWTVNGDTRVGLFAVCDIPAGTELTFNYNLDCLGNEKTVCRCGASNCSGFLGDRPKTSTTLSSEEKGKKTKKKTRRRRAKGEGKRQSEDECFRCGDGGQLVLCDRKFCTKAYHLSCLGLGKRPFGKWECPWHHCDVCGKPSTSFCHLCPNSFCKEHQDGTAFSCTPDGRSYCCEHDLGAASVRSTKTEKPPPEPGKPKGKRRRRRGWRRVTEGK
For B8, the “Z score of condensed fraction” value was -0.8212.

B9: PCBD (protein, UniProt P61457 2-104, looked up)
Pterin-4-alpha-carbinolamine …: AGKAHRLSAEERDQLLPNLRAVGWNELEGRDAIFKQFHFKDFNRAFGFMTRVALQAEKLDHHPEWFNVYNKVHITLSTHECAGLSERDINLASFIEQVAVSMT
With B9 the “Z score of condensed fraction” value was -0.6656.

B10: OLIG1 (protein, UniProt Q8TAK6 1-271, looked up)
Oligodendrocyte transcription …: MYYAVSQARVNAVPGTMLRPQRPGDLQLGASLYELVGYRQPPSSSSSSTSSTSSTSSSSTTAPLLPKAAREKPEAPAEPPGPGPGSGAHPGGSARPDAKEEQQQQLRRKINSRERKRMQDLNLAMDALREVILPYSAAHCQGAPGRKLSKIATLLLARNYILLLGSSLQELRRALGEGAGPAAPRLLLAGLPLLAAAPGSVLLAPGAVGPPDALRPAKYLSLALDEPPCGQFALPGGGAGGPGLCTCAVCKFPHLVPASLGLAAVQAQFSK
For B10, the “Z score of condensed fraction” value was -1.059.

B11: NUP62 (protein, UniProt P37198 2-522, looked up)
Nuclear pore glycoprotein p62: SGFNFGGTGAPTGGFTFGTAKTATTTPATGFSFSTSGTGGFNFGAPFQPATSTPSTGLFSLATQTPATQTTGFTFGTATLASGGTGFSLGIGASKLNLSNTAATPAMANPSGFGLGSSNLTNAISSTVTSSQGTAPTGFVFGPSTTSVAPATTSGGFSFTGGSTAQPSGFNIGSAGNSAQPTAPATLPFTPATPAATTAGATQPAAPTPTATITSTGPSLFASIATAPTSSATTGLSLCTPVTTAGAPTAGTQGFSLKAPGAASGTSTTTSTAATATATTTSSSSTTGFALNLKPLAPAGIPSNTAAAVTAPPGPGAAAGAAASSAMTYAQLESLINKWSLELEDQERHFLQQATQVNAWDRTLIENGEKITSLHREVEKVKLDQKRLDQELDFILSQQKELEDLLSPLEELVKEQSGTIYLQHADEEREKTYKLAENIDAQLKRMAQDLKDIIEHLNTSGAPADTSDPLQQICKILNAHMDSLQWIDQNSALLQRKVEEVTKVCEGRRKEQERSFRITFD
For B11, the “Z score of condensed fraction” value was -0.01313.

B12: OVOL1 (protein, UniProt O14753 1-267, looked up)
Putative transcription factor …: MPRAFLVKKPCVSTCKRNWSELPDEERGEIYVPVSLGFCPPQPYREPEPSVAEPPSCPLALNMSLRDSSYSMAPGPCVVAQLPSEDMGHLTDPQSRDHGFLRTKMKVTLGDSPSGDLFTCRVCQKAFTYQRMLNRHMKCHNDVKRHLCTYCGKGFNDTFDLKRHVRTHTGVRPYKCSLCDKAFTQRCSLESHLKKIHGVQQKYAYKERRAKLYVCEECGCTSESQEGHVLHLKEHHPDSPLLRKTSKKVAVALQNTVTSLLQGSPHL
For B12, the “Z score of condensed fraction” value was -0.194.

B13: PATZ1 (protein, UniProt Q9HBE1 1-687, looked up)
POZ-, AT hook-, and zinc …: MERVNDASCGPSGCYTYQVSRHSTEMLHNLNQQRKNGGRFCDVLLRVGDESFPAHRAVLAACSEYFESVFSAQLGDGGAADGGPADVGGATAAPGGGAGGSRELEMHTISSKVFGDILDFAYTSRIVVRLESFPELMTAAKFLLMRSVIEICQEVIKQSNVQILVPPARADIMLFRPPGTSDLGFPLDMTNGAALAANSNGIAGSMQPEEEAARAAGAAIAGQASLPVLPGVDRLPMVAGPLSPQLLTSPFPSVASSAPPLTGKRGRGRPRKANLLDSMFGSPGGLREAGILPCGLCGKVFTDANRLRQHEAQHGVTSLQLGYIDLPPPRLGENGLPISEDPDGPRKRSRTRKQVACEICGKIFRDVYHLNRHKLSHSGEKPYSCPVCGLRFKRKDRMSYHVRSHDGSVGKPYICQSCGKGFSRPDHLNGHIKQVHTSERPHKCQTCNASFATRDRLRSHLACHEDKVPCQVCGKYLRAAYMADHLKKHSEGPSNFCSICNRGFSSASYLKVHVKTHHGVPLPQVSRHQEPILNGGAAFHCARTYGNKEGQKCSHQDPIESSDSYGDLSDASDLKTPEKQSANGSFSCDMAVPKNKMESDGEKKYPCPECGSFFRSKSYLNKHIQKVHVRALGGPLGDLGPALGSPFSPQQNMSLLESFGFQIVQSAFASSLVDPEVDQQPMGPEGK
With B13 the “Z score of condensed fraction” value was -0.2188.
